Kd and EC50 data for six molecules are collected here from publication PMC11629141 (2024).

Test [1] deals with T1, S2B‐R101A‐6G11 post MMP‐9 digestion (scFv cleaved off, not removed) (human | chicken). As to the kind of experiment: BLI; MMP-9 cleaved.
Target sequence in this assay (heavy, as listed by the source, chain 2 of 2): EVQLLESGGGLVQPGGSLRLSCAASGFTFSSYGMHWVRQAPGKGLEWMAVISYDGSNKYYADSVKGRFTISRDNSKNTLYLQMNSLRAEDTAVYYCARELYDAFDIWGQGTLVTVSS
Target sequence in this assay (light, as listed by the source, chain 4 of 2): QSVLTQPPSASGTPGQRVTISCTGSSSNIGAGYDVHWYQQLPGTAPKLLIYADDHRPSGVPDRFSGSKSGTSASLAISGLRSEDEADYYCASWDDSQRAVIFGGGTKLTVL
Test [2] deals with T2, S2B‐W104A‐6G11 post MMP‐9 digestion (scFv cleaved off, not removed) (human | chicken). As to the kind of experiment: BLI; MMP-9 cleaved.
Target sequence in this assay (heavy, as listed by the source, chain 2 of 2): as the sequence (heavy, as listed by the source, chain 2 of 2) above
Target sequence in this assay (light, as listed by the source, chain 4 of 2): as the sequence (light, as listed by the source, chain 4 of 2) above
Test [3] concerns the target T3, S2B‐Y52A‐6G11 post MMP‐9 digestion (scFv cleaved off, not removed) (human | chicken). As to the kind of experiment: BLI; MMP-9 cleaved.
Target sequence in this assay (heavy, as listed by the source, chain 2 of 2): as the sequence (heavy, as listed by the source, chain 2 of 2) above
Target sequence in this assay (light, as listed by the source, chain 4 of 2): as the sequence (light, as listed by the source, chain 4 of 2) above
In test [4] the target is T1, S2B‐R101A‐6G11 post MMP‐9 digestion …. Put plainly: BLI.
The target of test [5] is T3, S2B‐Y52A‐6G11 post MMP‐9 digestion …. Put plainly: BLI.
In test [6] the target is T2, S2B‐W104A‐6G11 post MMP‐9 digestion …. Put plainly: BLI.
The target in test [7] is T4, 6G11 (BI‐1206), full‐length antibody containing the PGLALA Fc mutations (human). Put plainly: BLI.
T4 sequence (VH, as listed by the source, chain 1 of 2): as the sequence (heavy, as listed by the source, chain 2 of 2) above
T4 sequence (VL, as listed by the source, chain 2 of 2): as the sequence (light, as listed by the source, chain 4 of 2) above
The target in test [8] is T4, 6G11 (BI‐1206), full‐length antibody …. Put plainly: ELISA.
For test [9] the target is unchanged. As to the kind of experiment: ELISA; first of two printed values (3.3/28.7).

B1: His‐tagged human FcγRIIB extracellular domain protein (domain or fragment)
chain: TPAAPPKAVLKLEPQWINVLQEDSVTLTCRGTHSPESDSIQWFHNGNLIPTHTQPSYRFKANNNDSGEYTCQTGQTSLSDPVHLTVLSEWLVLQTPHLEFQEGETIVLRCHSWKDKPLVKVTFFQNGKSKKFSRSDPNFSIPQANHSHSGDYHCTGNIGYTLYSSKPVTITVQAP
As to B1, the equilibrium dissociation constant (Kd) in test [1] was 10.7 nM; in test [2], 10.3 nM; in test [3], 10.1 nM; in test [4] it was 10.7 nM; in test [5], 10.1 nM; in [6], 10.3 nM.

B2: S2B W104A scFv, solitary (scFv, V domains shown)
VH: AVTLDESGGGLQTPGGGLSLVCKASGFTFSSYSMVWVRQAPSKRLEWVAGIYSSATWTYYAPAVKGRATISRDNGQSTVRLQLNDLRAEDTGTYFCAKTSRSGATAYSASAIDAWGHGTEVIV
VL: ALTQPSSVSANPGETVKITCSGGSSYYGWYQQKSPGSAPVTVIYSNDKRPSDIPSRFSGSTSGSTATLTITGVQADDEAVYFCGGYDSNIHGGIFGAGTTLTVL
Take B2: the Kd in [7] turned out to be 9.6 nM. In addition, the EC50 in [8] is 6.7 nM.

B3: S2B scFv (blocking anti‐6G11 scFv clone 2), solitary (scFv, V domains shown)
VH: AVTLDESGGGLQTPGGGLSLVCKASGFTFSSYSMVWVRQAPSKRLEWVAGIYSSATWTYYAPAVKGRATISRDNGQSTVRLQLNDLRAEDTGTYFCAKTSRSGWTAYSASAIDAWGHGTEVIV
VL: ALTQPSSVSANPGETVKITCSGGSSYYGWYQQKSPGSAPVTVIYSNDKRPSDIPSRFSGSTSGSTATLTITGVQADDEAVYFCGGYDSNIHGGIFGAGTTLTVL
In test [7], B3 had a Kd of 1 nM. The EC50 in test [9] turned out to be 3.3 nM.

B4: S2B R101A scFv, solitary (scFv, V domains shown)
VH: AVTLDESGGGLQTPGGGLSLVCKASGFTFSSYSMVWVRQAPSKRLEWVAGIYSSATWTYYAPAVKGRATISRDNGQSTVRLQLNDLRAEDTGTYFCAKTSASGWTAYSASAIDAWGHGTEVIV
VL: ALTQPSSVSANPGETVKITCSGGSSYYGWYQQKSPGSAPVTVIYSNDKRPSDIPSRFSGSTSGSTATLTITGVQADDEAVYFCGGYDSNIHGGIFGAGTTLTVL
As to B4, the EC50 in test [8] was determined as 3.7 nM.

B5: S2B S164A scFv, solitary (scFv, V domains shown)
VH: AVTLDESGGGLQTPGGGLSLVCKASGFTFSSYSMVWVRQAPSKRLEWVAGIYSSATWTYYAPAVKGRATISRDNGQSTVRLQLNDLRAEDTGTYFCAKTSRSGWTAYSASAIDAWGHGTEVIV
VL: ALTQPSSVSANPGETVKITCSGGASYYGWYQQKSPGSAPVTVIYSNDKRPSDIPSRFSGSTSGSTATLTITGVQADDEAVYFCGGYDSNIHGGIFGAGTTLTVL
B5 returned a Kd in test [7] of 0.8 nM. Moreover, the EC50 in test [8] was found to be 2.7 nM.

B6: S2B Y52A scFv, solitary (scFv, V domains shown)
VH: AVTLDESGGGLQTPGGGLSLVCKASGFTFSSYSMVWVRQAPSKRLEWVAGIASSATWTYYAPAVKGRATISRDNGQSTVRLQLNDLRAEDTGTYFCAKTSRSGWTAYSASAIDAWGHGTEVIV
VL: ALTQPSSVSANPGETVKITCSGGSSYYGWYQQKSPGSAPVTVIYSNDKRPSDIPSRFSGSTSGSTATLTITGVQADDEAVYFCGGYDSNIHGGIFGAGTTLTVL
B6: the affinity in [7], expressed as Kd, was 4.3 nM. This molecule also returned a concentration for a half-maximal effect (EC50) in test [8] of 11.2 nM.
